Laboratory results from the RNAGym collection of RNA variant scans (doi:10.7554/elife.80360).

B1: HDV Ribozyme (parent)
chain: GGCCGGCAUGGUCCCAGCCUCCUCGCUGGCGCCGGCUGGGCAACAUUCCGAGGGGACCGUCCCCUCGGUAAUGGCGAAUGGGACCCA

Variants of: B1
Assay: self-cleavage, relative activity (ratio to wild type); higher = more cleavage; co-transcriptional

First: GGCCGGCAUGGGCCCAGCCUCCUCGCUGGCGCCGGCUGGGCAAAAUUCCGAGGGGACCGUCCCCUCGGUAAUGGCGAAUGGGACCCA [U12G C44A]
Second: GGCCGGCAUGGGCCCAGCCUCCUCGCUGGCGCCGGCUGGGCAAGAUUCCGAGGGGACCGUCCCCUCGGUAAUGGCGAAUGGGACCCA [U12G C44G]
The self-cleavage of the first is higher: 0.604 for the first, 0.475 for the second.

First: GGCCGGCAUGGGCCCAGCCUCCUCGCUGGCGCCGGCUGGGCAACAUUCCGAGGGGACCGUCCCCUCGGUAAUGGCGAAUGGGACCAA [U12G C86A]
Second: GGCCGGCAUGGGCCCAGCCUCCUCGCUGGCGCCGGCUGGGCAACAUUCCGAGGGGACCGUCCCCUCGGUAAUGGCGAAUGGGACCGA [U12G C86G]
The self-cleavage of the first is higher: 0.906 for the first, 0.59 for the second.

Compared with GGCCGGCAUGGGCCCAGCCUCCUCGCUGGCGCCGGCUGGGCAACAUUCCGAGGGGAACGUCCCCUCGGUAAUGGCGAAUGGGACCCA [U12G C57A], GGCCGGCAUGGGCCCAGCCUCCUCGCUGGCGCCGGCUGGGCAACAUUCCGAGGGGAGCGUCCCCUCGGUAAUGGCGAAUGGGACCCA [U12G C57G] is lower in self-cleavage: 0.985 for the first, 0.931 for the second.

GGCCGGCAUGGGCCCAGCCUCCUCGCUGGCGCCGGCUGGGCAACAUUCCGAGGGGACCGUACCCUCGGUAAUGGCGAAUGGGACCCA [U12G C61A] and GGCCGGCAUGGGCCCAGCCUCCUCGCUGGCGCCGGCUGGGCAACAUUCCGAGGGGACCGUGCCCUCGGUAAUGGCGAAUGGGACCCA [U12G C61G] are the same in self-cleavage: 0.798 for the first, 0.798 for the second.

First: GGCCGGCAUGGGCCCAGCCUCCUCGCUGGCGCCGGCUGGGCAACAUUCCGAGGGGACCGUUCCCUCGGUAAUGGCGAAUGGGACCCA [U12G C61U]
Second: GGCCGGCAUGGGCCCAGCCUCCUCGCUGGCGGCGGCUGGGCAACAUUCCGAGGGGACCGUCCCCUCGGUAAUGGCGAAUGGGACCCA [U12G C32G]
The self-cleavage of the first is higher: 0.831 for the first, 0.0755 for the second.

First: GGCCGGCAUGGGCCCAGCCUCCUCGCUGGCGCCGGCUGGGCAACAUUACGAGGGGACCGUCCCCUCGGUAAUGGCGAAUGGGACCCA [U12G C48A]
Second: GGCCGGCAUGGGCCCAGCCUCCUCGCUGGCGCCGGCUGGGCAACAUUUCGAGGGGACCGUCCCCUCGGUAAUGGCGAAUGGGACCCA [U12G C48U]
The self-cleavage of the first is lower: 0.831 for the first, 1.2 for the second.

Going from GGCCGGCAUGGGCCCAGCCUCCUCGCUGGCGCCGGCUGGGCAACAUUCCGAGGGGACCGUCCCCUCGGUAAUGGCGAAUGGGAACCA [U12G C84A] to GGCCGGCAUGGGCCCAGCCUCCUCGCUGGCGCCGGCUGGGCAACAUUCCGAGGGGACCGUCCCCUCGGUAAUGGCGAAUGGGAUCCA [U12G C84U], the self-cleavage rises from 0.665 to 0.692.

GGCCGGCAUGGGCCCAGCCUCCUCGCUUGCGCCGGCUGGGCAACAUUCCGAGGGGACCGUCCCCUCGGUAAUGGCGAAUGGGACCCA [U12G G28U] and GGCCGGCAUGGGCCCAGCCUCCUCGCUAGCGCCGGCUGGGCAACAUUCCGAGGGGACCGUCCCCUCGGUAAUGGCGAAUGGGACCCA [U12G G28A] are the same in self-cleavage: 0 for the first, 0 for the second.

Going from GGCCGGCAUGGGCCCAGCCUCCUCGAUGGCGCCGGCUGGGCAACAUUCCGAGGGGACCGUCCCCUCGGUAAUGGCGAAUGGGACCCA [U12G C26A] to GGCCGGCAUGGGCCCAGCCUCCUCGCUGGCGCCGGCUGGGCAACAUUCCGAGGGGACCGUCCCCUCGGUAAUGGUGAAUGGGACCCA [U12G C75U], the self-cleavage falls from 0.748 to 0.

First: GGCCGGCAUGGGCCCAGCCUCCUCGCUGGCGCCGGCUGGGCAACAUUCUGAGGGGACCGUCCCCUCGGUAAUGGCGAAUGGGACCCA [U12G C49U]
Second: GGCCGGCAUGGGCCCAGCCUCCUCGCUGGCGCCGGCUGGGCAACAUUCGGAGGGGACCGUCCCCUCGGUAAUGGCGAAUGGGACCCA [U12G C49G]
The self-cleavage of the first is lower: 0.776 for the first, 0.787 for the second.

First: GGCCGGCAUGGGCCCAGCCUCCUCGCUGGCGCCGGCUGGGCAACAUUCCGAGGGGACCGUCUCCUCGGUAAUGGCGAAUGGGACCCA [U12G C62U]
Second: GGCCGGCAUGGGCCCAGCCUCCUCGCUGGCGCCGGCUGGGCAACAUUCCGAGGGGACCGUCACCUCGGUAAUGGCGAAUGGGACCCA [U12G C62A]
The self-cleavage of the first is lower: 0.755 for the first, 1.06 for the second.

Going from GGCCGGCAUGGGCCCAGCCUCCUCGCUGGAGCCGGCUGGGCAACAUUCCGAGGGGACCGUCCCCUCGGUAAUGGCGAAUGGGACCCA [U12G C30A] to GGCCGGCAUGGGCCCAGCCUCCUCGCUGGUGCCGGCUGGGCAACAUUCCGAGGGGACCGUCCCCUCGGUAAUGGCGAAUGGGACCCA [U12G C30U], the self-cleavage rises from 0.332 to 0.375.

Going from GGCCGGCAUGGGCCCAACCUCCUCGCUGGCGCCGGCUGGGCAACAUUCCGAGGGGACCGUCCCCUCGGUAAUGGCGAAUGGGACCCA [U12G G17A] to GGCCGGCAUGGGCCCAGCCUCCUCGCUGGCGCCGGCUGGGCAACAUUCCGAGGGGACCGUCCCCUUGGUAAUGGCGAAUGGGACCCA [U12G C66U], the self-cleavage rises from 0.277 to 0.853.

Going from GGCCGGCAUGGGCCCAGCCUCCUCGCUGGCGCCGGCUGGGCAACAUUCCGAGGGGACCGUCCCCUGGGUAAUGGCGAAUGGGACCCA [U12G C66G] to GGCCGGCAUGGGCCCAGCCUCCUCCCUGGCGCCGGCUGGGCAACAUUCCGAGGGGACCGUCCCCUCGGUAAUGGCGAAUGGGACCCA [U12G G25C], the self-cleavage falls from 0.862 to 0.119.

Going from GGCCGGCAUGGGCCCAGCCUCCUCGCUGGCGCCGGAUGGGCAACAUUCCGAGGGGACCGUCCCCUCGGUAAUGGCGAAUGGGACCCA [U12G C36A] to GGCCGGCAUGGGCCCAGCCUCCUCGCUGGCGCCGGUUGGGCAACAUUCCGAGGGGACCGUCCCCUCGGUAAUGGCGAAUGGGACCCA [U12G C36U], the self-cleavage rises from 0.156 to 0.415.

First: GGCCGGCAUGGGCCCAGCCUCCUCGCUGGCGCCGGCUGGGCAACAUUCCGAGGGGACCGUCCCAUCGGUAAUGGCGAAUGGGACCCA [U12G C64A]
Second: GGCCGGCAUGGGCCCAGCCUCCUUGCUGGCGCCGGCUGGGCAACAUUCCGAGGGGACCGUCCCCUCGGUAAUGGCGAAUGGGACCCA [U12G C24U]
The self-cleavage of the first is higher: 0.594 for the first, 0.511 for the second.
